Consider 16 sequences from the DeepSol protein solubility set.

The nature of this data set: soluble on expression in E. coli; label from the status in PepcDB or PDB records.
As to “MLYDKSLEKDNCGFGLIAHIEGEPSHKVVRTAIHALARMQHRGAILADGKTGDGCGLLLQKPDRFFRIVAEERGWRLAKNYAVGMIFLNKDPELAAASRHIVEEELQQETLSIVGWRDVPTNEGVLGEIALSSLPRIEQIFVNAPAGWRPRDMERRLFIARRRIEKRLQDDKDFYVCSLSNLVNIYKGLCMPADLPRFYLDLADLRLESAICLFHQRFSTNTVPRWPLAQPFRYLAHNGEINTITGNRQWARARTYKFQTPLIPDLQSAAPFVNETGSDSSSLDNMLELLLAGGMDIIRAMRLLVPPAWQNNPDMDQDLRAFFDFNSMHMEPWDGPAGIVMSDGRFAACNLDRNGLRPARYVITKDKLITCASEVGIWDYQPDEVVEKGRVGPGELMVIDTRGGRILHSAETDDDLKSRHPYKEWMEKNVRRLVPFEELPDEEVGSRELDDDLLASYQKQFNYSAEELDSVIRVLGENGQEAVGSMGDDTPFAVLSSQPRIIYDYFRQQFAQVTNPPIDPLREAHVMSLATSIGREMNVFCEAEGQAHRLSFKSPILLYSDFKQLTTMKEEHYRADRLDITFDVTETTLNATVKALCDKAEQMVRNGTVLLVLSDRNIGKNRLPVPAPMAVGAVQTRLVEQSLRCDANIIVETGSARDPHHFAVLLGFGATAIYPYLAYETLGRLIDTQAIAKNYRTVMQNYRNGINKGLYKIMSKMGISTIASYRCSKLFEAVGLHDDVVNLCFQGVVSRIGGASFDDFQQDLLNLSKRAWLARKPISPGGLLKYVHGGEYHAYNPDVVRTLQQAVQSGEYSDYQEYAKLVNERPASTLRDLLAIHPDGEAVTIDEVEPASELFKRFDTAAMSIGALSPEAHEALAEAMNSLGGNSNSGEGGEDPARYGTNKVSRIKQVASGRFGVTPAYLVNADVIQIKVAQGAKPGEGGQLPGDKVTPYIAKLRYSVPGVTLISPPPHHDIYSIEDLAQLIFDLKQVNPKAMISVKLVSEPGVGTIATGVAKAYADLITIAGYDGGTGASPLSSVKYAGCPWELGLVETQQALVANGLRHKIRLQVDGGLKTGVDIIKAAILGAESFGFGTGPMVALGCKYLRICHLNNCATGVATQDDKLRKNHYHGLPFKVTNYFEFIAREVRELMASLGVTRLVDLIGRTDLLKELEGFTAKQQKLALSRLLETAEPHPGKALYCTENNPPFDNGVLNAQLLQQAKPFVDARQSKTFWFDIRNTDRSVGASLSGYIAQTHGDQGLASDPIKAHFSGTAGQSFGVWNAGGVELYLTGDANDYVGKGMAGGLIAIRPPVGSAFLSHKASIIGNTCLYGATGGRLYAAGRAGERFGVRNSGAITVVEGIGDNGCEYMTGGIVCVLGKTGVNFGAGMTGGFAYVLDEDGEFRKRVNPELVEVLDVDSLAIHEEHLRGLITEHVQHTGSQRGEEILSRWSSFSTQFALVKPKSSDVKALLGHRSRSAAELRVQAQ”, the “soluble on expression in E. coli” value is reported as “not soluble”.

“MLYFVLCDLKFNQFSRYPMSYQKIELSISLSLDSPKLDESDFILLSVKYLEKSLGKKKEFSGFFEDIEKLYFKQNYKEAIEKILDFCKKNESLLSEQVVQRLAEVAPRLKSNPKDNESRRLYETLYADHLESVIKQESDLSVFNELRDSYNAVKPEYAVTHETEIKTLDEAKQFILSFVMLNDNVELPLKAQSERYPKKDRSREELGNTPSANPGIMKPNSPNFTDNLVPVRDVPKIAINEKVAGGYSKTKPTTPFVASLSGTTYSLMVVLTDYIEKHKTDKDIEKKVNQIINLWISSYIKEGYHSYSEVVDVLTEPFLQSIFDKANIKLNYGVLDDTHAEFRKAQDYVFGLTIQSAMHHELQERFKNKEKLQEEVKNFESGLNKLNQNVENTGRHREALNKLNEVFQDWSAGKKSYDAFKSESNQLIHDIESEEQKSNRGLGSMLKNLGNYLLYLITLRFLKEDYPKPSSPVTMLVTELRGTLEQIDHFHKTSLSLKKATQPDPKNTSSSDETADVRKSAVDTDKPSKNQDSEVKKTLDSEQLEEVQRQDDKSARLQ”: the “soluble on expression in E. coli” value is on record as “not soluble”.

Consider “MLYNLAIVIYDLLVHFAAPFSRKPRKMMKGHWVVYELLRQQVEKGEQYIWFHAASLGEFEQGRPLIEMIREKYPDYKILLTFFSPSGYEVRKHYRGADIVCYLPFDKPRNVKKFLDIANPCMAFFIKYEFWKNYLDELHKRRIPVYSVSSIFRRDQIFFKWYGGTYRNVLKDFDHLFVQNEASKRYLSKIGICRVTVVGDTRFDRVLQIREEAKDLPLVKMFKGDNAFTFVAGSSWGPDEDLFLEYFNTHPEMKLIIAPHVIDENHLVEIISKLKRPYVRYTRADEKNVLKVDCLIIDCFGLLSSIYRYGEVAYIGGGFGVGIHNTLEAAVYGIPVIFGPKYQKFMEAIRLLEAKGAYSIKDYHELKTLLDRFQADDVFMRETGANAGYYVTSNAGATEKIMHMINFLEHHHHHH”, for which the “soluble on expression in E. coli” value is “not soluble”.

For “MMAARLLGTSSRIFKLNKHLHTSKVAFMPVVQFKLSDIGEGIAEVQVKEWYVKEGDTISQFDKVCEVQSDKAAVTISCRYDGIVKKLYHEVDGMARVGQALIDVEIEGNVEEPEQPKKEAASSSPEAPKSSAPKAPESAHSEGKVLATPAVRRIAIENKIKLAEVRGTGKDGRVLKEDVLKFLGQVPADHTSGSTNIRTTHQAPQPSSKSYEPLKEDVAVPIRGYTRAMVKTMTEALKIPHFGYNDEINVDSLVKYRAELKEFAKERHIKLSYMPFFIKAASLALLEYPSLNSTTDEKMENVIHKASHNICLAMDTPGGLVVPNIKNCEQRSIFEIAQELNRLLEAGKKQQIKREDLIDGTFSLSNIGNIGGTYASPVVFPPQVAIGAIGKIEKLPRFDKHDNVIPVNIMKVSWCADHRVVDGATMARFSNRWKFYLEHPSAMLAQLK”, the “soluble on expression in E. coli” value was “not soluble”.

With “MMEERANLMHMMKLSIKVLLQSALSLGRSLDADHAPLQQFFVVMEHCLKHGLKVKKSFIGQNKSFFGPLELVEKLCPEASDIATSVRNLPELKTAVGRGRAWLYLALMQKKLADYLKVLIDNKHLLSEFYEPEALMMEEEGMVIVGLLVGLNVLDANLCLKGEDLDSQVGVIDFSLYLKDVQDLDGGKEHERITDVLDQKNYVEELNRHLSCTVGDLQTKIDGLEKTNSKLQEELSAATDRICSLQEEQQQLREQNELIRERSEKSVEITKQDTKVELETYKQTRQGLDEMYSDVWKQLKEEKKVRLELEKELELQIGMKTEMEIAMKLLEKDTHEKQDTLVALRQQLEEVKAINLQMFHKAQNAESSLQQKNEAITSFEGKTNQVMSSMKQMEERLQHSERARQGAEERSHKLQQELGGRIGALQLQLSQLHEQCSSLEKELKSEKEQRQALQRELQHEKDTSSLLRMELQQVEGLKKELRELQDEKAELQKICEEQEQALQEMGLHLSQSKLKMEDIKEVNQALKGHAWLKDDEATHCRQCEKEFSISRRKHHCRNCGHIFCNTCSSNELALPSYPKPVRVCDSCHTLLLQRCSSTAS”, the “soluble on expression in E. coli” value is “soluble”.

With “MMKIIAFVGMPASGKSEASRIAAEMGIPVIIMGDVIRKEVLKRGLEPNDSNTGMVATDLRKHEGMGAVARRCISQIRETGSELVVVDGVRGIAEVECFRKEFGKGFILISIYAPIEVRFSRVQKRGRSDDMNSIEGLRHRDERELSWGMGEAIDASNVEIENNFTLETFRKDVRDVLSNYLEADLEK”, the “soluble on expression in E. coli” value is on record as “not soluble”.

Turning to “MMKKILVACGTGMSTSTMIAQKLQDFLAEQGIAATTAQCCLNEIPLNCNGMDLIVTSMRTHSDYGIPTLNGAALLTGINDDALKQEIKALLTQ”, the “soluble on expression in E. coli” value is “not soluble”.

As to “MMKTVLIYYPFSLAAERNSGSKLRPYEMHQAFLRWGAKEGVDVLLIAGTSAEREKQFQELRSQGKLDDVWFCYMENQTIPLWLTDPGHRSQRPFVDRDVLRYLKARNVPIGVFYRDVYWKFPDLYPLRGWKKAAMQMMYRWEERFYERYCDVIFLPSLEMGTYVAIRRPMVDLPPGGKQKPFQRFGTAKQPLNAIYVGGINNADYGLLLLLEAIRLANRRKPLVSLTVVCRKDEYERQPLAVKEELAALQVRVEHVSGEALDRLYAEMDFAFIPRRRSEYNDFSVPVKLVDYLSSGLPIVATACSAQKRLIEADGYGVICDDNPSSMAEAIAKMADMLEECRLRIAQTFMAKHSWEARVEKVKETLVGGLR”, the “soluble on expression in E. coli” value is recorded as “not soluble”.

“MMNIFILEDDFIQQTRIESIVVGILKETRIPCNQLEVFSTPQKLFESIQERGDHQLYFLDIEIGEYTRCGLELAAAIRQKDPNAVIVFVTTHSEFAPISFKYKVSALDFIDKAGGQKQFKEQIEECIRYTYDMMSSRESKDMFLFETPQTRLKLPYKDILYFATATTPHKVCLWTQTERLEFYGNLSEIQAVAPKLFLCHRSYLVNLDKVVRIDKSKQLLYFENGDSCMVSRLKMKCLFERWEALR”: the “soluble on expression in E. coli” value was “not soluble”.

As to “MMNISHKDHHNDQEISDANRDWWDSDAQRYHNDHAAYLNGFHWCPEMLPEREAHLLGDISGLNVLEIGCGSAPCSRWLFDNYDAFVTGFDLSMGMLRHSPTDVPLTQADAVNLPYKDSSFDIAFSAFGAFPFIENLGPVLKDIARCLKPHGKLVFSTNHPMRWIFPDDPTEIGLCAELSYFDRSYTERDKNGKITYAEFHRTMGDWIELLNASGFIIDRLIEPEWPTNLTETWGQWSPLRGRIFPGTAIFVTHCR”, the “soluble on expression in E. coli” value is “not soluble”.

Turning to “MMNTKVALKQLMATHFITVDVPCPECGGAMTAWKEPTPDTPPRCPPVCMECGYRSVKKKEATTAKNLYESSLIKKAKDYFLNGSVLTDRKSLHKKISNYYPSNQESTKAKNISMEFCEKTLLGEIHHLILTGGVGVGKSHLAIGCLNEILVKSNYSKKVLFVSYRELLEQLKFAMNDEEARKAITGVAMSEIKAADVVVLDDIGAELGDFNKRDEKGNLILSRASNFDIDTLTGILESRIDKPTIITSNLKSKEIKYCYGERIVSRMATHSNGFMHRFTNTKDYRLKTALEHHHHHH”, the “soluble on expression in E. coli” value is “soluble”.

“MMQVLTRPPSGMPALVLNADFRPLSYYPLSLWPWQEVIKAVFLDRVDVVASYDQVIHSPSCEMRLPSVVALKQYVPQERPPAFTRFNLFLRDSFSCQYCGSPEDLTFDHVIPRSRGGRTTWENIVTACAPCNLSKGGRTPREAGMQPFHTARRPSMYELQERGRRFPPGRLHVSWLDYLYWDIELEALEHHHHHH”: the “soluble on expression in E. coli” value is on record as “not soluble”.

As for “MMRGASKRSISSAAVLLIKKNKLPPRPKFTPEMEAQCTEKFLHGGRGPGGQKINKCNSKVQLRHEPTGIVVECQETRSREQNRKLARLKLARELAASYDTMPSREEALLQWHRQQKRSQRRRSVAKYEQREEAARVEKEEREARDREMVRELFRR”, the “soluble on expression in E. coli” value is “soluble”.

Turning to “MMRITGKHCLRVAILSIQRSGMIHPRNTNGSKAKNVMVADGCVIEGTVENSILSRGVKIGKNAKVKNCILLQDTVIEDGANLEYVITDKNVRVSRNRSLTGNDSFQVYVAKGQTV”, the “soluble on expression in E. coli” value is on record as “not soluble”.

With “MMRPTVFSSKAVISSSSLSASLAGAKIIEKGGNIFDAAIAVSSVLSVTQNNLCGLGGDAFALVRYNGRVKGYNGSGKSSRNVNRGLYFELGYSRIPERGIYSAITVPGLVDLWNSLYLEYATMRFSDLISDAIKYAETGFYITRHYEESLIASSPILGQYNWSNQFMPYGKIPAEGDLFIQKDLAGTLREIAEEGPRSFYDGYLSDIIFKAMEKTNLLIDSKDLSDHKTLAANPVKSTYMDYDVFETAPNSQGATVNYWLALLEQKIQNKIPRPVDIVESGLEAYRWRSMFIGDPERMPFNGDLLSKGAGPYYNNPRVPEDKGDTTYFSISDANGNSISMIQSNYMGFGSGIIPEGTGFVLQNRGSYFTLDDKHHNSLEPRKRTFHTLAACIIEKDGELVYSLGTMGGDIQPQVQVQIITGLINQDLMPQEAIERPRWAFPATIYEQPSVLNVEDTSLINENETRLRINPMKYSSSFGTAQVTALLNGRVAGGSDPRGDGFSIPVMAGDPLEHHHHHH”, the “soluble on expression in E. coli” value is given as “not soluble”.

Regarding “MMSGAVEPVSVIFPQSTSSGVEVLYQQFSFGRYFNQIAAGVITGLIQAHQHSGHGPLRILEVGGGTGGTTAWLLPELRNVADVRYCFTDISALFSRRAEDKFSEYDFVEYAQFDLQKPASEQGFQAGHYDLIVAANVIHATQHVGQTLHNLRPLLKPGGALLMREITRPMRLFDFVFGPLVLPLHDEQARGGELFLSTAHWQQQCLESGFERLDWLP”, the “soluble on expression in E. coli” value is “not soluble”.
